Experiment [1] has as its target Crotalus durissus terrificus (C.d.t.) venom. The experiment can be described thus: ELISA on C.d.t. venom; dilution 1:62,500. On the technique in general: An ELISA detects its analyte on a solid surface through an enzyme-linked reagent.
Experiment [2] shares this target. The experiment can be described thus: ELISA on C.d.t. venom; dilution 1:312,500.

On to preimmune IgY (antibody), for which the ELISA absorbance in experiment [1] was found to be 0.001 absorbance; in experiment [2] it was 0.01 absorbance.

Values taken from patent US20040142455A1.
